Literature values as cited in patent US7531621B1, “PTH2 receptor selective compounds” (Societe de Conseils de Recherches et d'Applications …, priority 1999, dated 2009).

Columns and labels:
[1] = biological target: PTH2 receptor (Homo sapiens, UniProt P49190); settings: result in words, background
[2] = biological target: T1, PTH/PTHrP receptor (Homo sapiens, UniProt Q03431); settings: result in words, background
T1 sequence (Q03431 27-593): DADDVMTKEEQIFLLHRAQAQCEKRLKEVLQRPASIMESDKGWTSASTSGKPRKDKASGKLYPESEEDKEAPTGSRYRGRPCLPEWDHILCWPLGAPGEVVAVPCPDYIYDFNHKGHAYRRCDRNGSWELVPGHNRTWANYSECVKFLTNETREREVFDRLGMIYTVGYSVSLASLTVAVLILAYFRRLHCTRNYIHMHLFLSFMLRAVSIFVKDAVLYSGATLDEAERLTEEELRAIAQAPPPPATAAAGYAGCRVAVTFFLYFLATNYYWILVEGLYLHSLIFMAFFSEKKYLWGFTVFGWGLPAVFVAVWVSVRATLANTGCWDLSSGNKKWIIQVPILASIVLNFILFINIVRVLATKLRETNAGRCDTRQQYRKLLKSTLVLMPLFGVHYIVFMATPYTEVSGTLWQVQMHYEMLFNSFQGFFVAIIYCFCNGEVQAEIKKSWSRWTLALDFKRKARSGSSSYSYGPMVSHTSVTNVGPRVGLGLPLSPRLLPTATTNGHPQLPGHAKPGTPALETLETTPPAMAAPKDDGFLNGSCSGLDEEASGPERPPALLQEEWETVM

Sequence of PTH2 receptor (P49190 25-550): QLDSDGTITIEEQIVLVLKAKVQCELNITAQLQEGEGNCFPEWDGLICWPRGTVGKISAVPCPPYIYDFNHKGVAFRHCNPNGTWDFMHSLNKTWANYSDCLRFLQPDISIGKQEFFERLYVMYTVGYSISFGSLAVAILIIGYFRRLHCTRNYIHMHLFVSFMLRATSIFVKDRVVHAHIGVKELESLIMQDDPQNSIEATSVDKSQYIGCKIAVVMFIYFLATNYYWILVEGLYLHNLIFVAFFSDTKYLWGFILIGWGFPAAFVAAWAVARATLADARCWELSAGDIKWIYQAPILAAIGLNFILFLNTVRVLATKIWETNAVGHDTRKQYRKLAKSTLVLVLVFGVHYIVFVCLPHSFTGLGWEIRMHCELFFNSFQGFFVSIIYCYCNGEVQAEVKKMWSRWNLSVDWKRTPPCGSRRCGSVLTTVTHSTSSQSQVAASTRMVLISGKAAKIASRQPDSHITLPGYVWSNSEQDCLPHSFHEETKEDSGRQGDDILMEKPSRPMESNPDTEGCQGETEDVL

| activation of the PTH2 receptor [1] | binding and activation of the PTH/PTHrP receptor [2] | Substance |
| --- | --- | --- |
| acts as a PTH-2 receptor agonist | binds and activates both receptors | Ile^5-PTHrP-(1-34) NH2 |
| selectively activated | binds and is activated by both | PTH-(1-34) |
| weakly activate | – | PTHrP (7-34) |
